Laboratory results from article PMC8786347 (Oncoimmunology, 2022).

Key:
Assay in all cases: ELISA
CD27-moFc = biological target: T1, CD27-moFc (UniProt P26842 20-191)
T1 sequence (looked up): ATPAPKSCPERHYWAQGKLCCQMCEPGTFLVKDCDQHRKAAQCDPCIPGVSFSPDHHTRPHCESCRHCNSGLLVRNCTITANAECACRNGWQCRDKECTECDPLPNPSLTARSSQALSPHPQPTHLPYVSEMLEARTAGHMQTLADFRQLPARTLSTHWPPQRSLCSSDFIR

OX40-moFc = biological target: T2, OX40-moFc (UniProt P43489 29-214)
T2 sequence (looked up): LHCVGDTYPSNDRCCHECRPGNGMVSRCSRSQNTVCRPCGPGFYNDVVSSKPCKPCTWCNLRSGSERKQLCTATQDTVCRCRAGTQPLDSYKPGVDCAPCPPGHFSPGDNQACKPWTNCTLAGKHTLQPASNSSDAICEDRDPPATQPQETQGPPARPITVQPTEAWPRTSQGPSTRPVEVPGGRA

CD27-huFc = biological target: T3, CD27-huFc (UniProt P26842 20-191)
T3 sequence (looked up): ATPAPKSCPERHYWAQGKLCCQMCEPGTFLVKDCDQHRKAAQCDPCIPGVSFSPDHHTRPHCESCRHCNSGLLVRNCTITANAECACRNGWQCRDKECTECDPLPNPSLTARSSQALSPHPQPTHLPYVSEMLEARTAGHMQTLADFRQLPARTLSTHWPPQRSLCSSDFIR

Measured: EC50

B1: scCD27L-scOX40L-Fc (Fc fusion, human)
chain 1: SLGWDVAELQLNHTGPQQDPRLYWQGGPALGRSFLHGPELDKGQLRIHRDGIYMVHIQVTLAICSSTTASRHHPTTLAVGICSPASRSISLLRLSFHQGCTIASQRLTPLARGDTLCTNLTGTLLPSRNTDETFFGVQWVRPGGSLGWDVAELQLNHTGPQQDPRLYWQGGPALGRSFLHGPELDKGQLRIHRDGIYMVHIQVTLAICSSTTASRHHPTTLAVGICSPASRSISLLRLSFHQGCTIASQRLTPLARGDTLCTNLTGTLLPSRNTDETFFGVQWVRPGGSLGWDVAELQLNHTGPQQDPRLYWQGGPALGRSFLHGPELDKGQLRIHRDGIYMVHIQVTLAICSSTTASRHHPTTLAVGICSPASRSISLLRLSFHQGCTIASQRLTPLARGDTLCTNLTGTLLPSRNTDETFFGVQWVRP
chain 2: QVSHRYPRIQSIKVQFTEYKKEKGFILTSQKEDEIMKVQNNSVIINCDGFYLISLKGYFSQEVNISLHYQKDEEPLFQLKKVRSVNSLMVASLTYKDKVYLNVTTDNTSLDDFHVNGGELILIHQNPGEFCVLGGGGSGGGGSGGGGSQVSHRYPRIQSIKVQFTEYKKEKGFILTSQKEDEIMKVQNNSVIINCDGFYLISLKGYFSQEVNISLHYQKDEEPLFQLKKVRSVNSLMVASLTYKDKVYLNVTTDNTSLDDFHVNGGELILIHQNPGEFCVLGGGGSGGGGSGGGGSQVSHRYPRIQSIKVQFTEYKKEKGFILTSQKEDEIMKVQNNSVIINCDGFYLISLKGYFSQEVNISLHYQKDEEPLFQLKKVRSVNSLMVASLTYKDKVYLNVTTDNTSLDDFHVNGGELILIHQNPGEFCVL
300 pM: CD27-moFc | OX40-moFc | CD27-huFc
